Results as given in the supplement of paper PMC9170038.

Tested on: MS2 coat protein
Experiment: apparent KD of MS2 coat protein; higher = weaker reporter binding
Conditions: Eterna round: R107
Outline: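 Apparent KD is reported per design as the median of normalised binding-curve fits across its clusters. The RNA switches were made by on-chip transcription from Illumina sequencing clusters. SNAP-549-labelled MS2 coat protein was then added in twofold steps (0.7 or 1.5 nM to 3 µM; 0.8–1.5 h to 10–20 min per step) in 100 mM Tris-HCl pH 7.5, 80 mM KCl, 4 mM MgCl2, without or with constant ligand.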

[1] = input ligand: theophylline 20 uM
[2] = input ligand: theophylline 2 mM
[3] = input ligand: tryptophan 2.4 mM

Sequence | apparent KD of MS2 coat protein (input ligand: arginine 13.2 mM) | apparent KD of MS2 coat protein (input ligand: none) | apparent KD of MS2 coat protein [1] | apparent KD of MS2 coat protein [2] | apparent KD of MS2 coat protein [3]
AAAGGACAUGAGGAUCACCCAUGUCUCGAUACCAGCCGAUCAUCAGGCCCUUGGCAGCGAGACAAGGGUCAUGGAUCGCGGUUCU [Beerusmage] | 11.7 nM | 11.4 nM | 17.4 nM | 12.3 nM | 13.9 nM
GGACUAACUCGAAGGAGCGACGCGCAGAAACUGCAAUUUCCUCCACACGAGGAUCACCCGUGUCAGGUAGGUCGCGAGUUAGUCG [ArgBX 29] | 14.9 nM | 12.8 nM | 18.6 nM | 14.7 nM | 16 nM
AAUAACAUGAGGAUCACCCAUGUAAGUGGGCGAGGACCGGUACGGCCGCCACUCGGAUGAUGUUGACGAAAAGUCAGCAUCAUCA [#OpenEnded 2 #GuTurnoff #Tail] | 25.9 nM | 24.7 nM | 31.3 nM | 34.1 nM | 55.1 nM
UUAUUUAUAAAUGAUACCAGCCGAUUGGCCGCAAAUCCUAACAUGAGGAUCACCCAUGUCGGCCCUUGGCAGCAUUUAUGGGUUU [XTheo B #28] | 56 nM |  | 134 nM |  | 65.1 nM
UGUCUAGUAAUCGAUACCAGCUACAUGAGGAUCACCCAUGUAGUUCGAACGGCCGCAUGUAGCCCUUGGCAGCGAAUAGUUACAU [Onbitelege] | 14.2 nM |  | 32.8 nM |  | 18.7 nM
ACUCGGUGUUUGUUGCUCCGAGUUUAUGAUACCAGUUAGUUUUAUGGCCCUUGGCAGCAUAGGACAUGAGGAUCACCCAUGUGUU [#03 SameState-TheophyllineA] | 26.2 nM |  | 38.6 nM |  | 32.2 nM
CAUUGUUAGACGGCCGCCACUUUUGGUUCGGAACGAUCGAUUGGACAUGAGGAUCACCCAUGUGGAAGGACCGGGUCUAAUCAAA [theeternabot_sameState_MS2_Trp_B_20] | 83 nM | 165 nM | 328 nM | 265 nM | 134 nM
UCAUGCAGGUCGGCCGCCACUACACACAUGAGGAUCACCCAUGUAGUUACUGGGUGAAGUGGCAGUAGGACCGGGACCUGCAUAU [Brourdmod08] | 155 nM | 423 nM | 664 nM | 696 nM | 559 nM
ACGACGCAUACAGAUACCAGUAGAACAUGAGGAUCACCCAUGUCUGAGGCGCUCCGCCACUGCCCUUGGCAGCUGUAUGCGUCAG [SSTheo B #11] | 9.42 nM |  | 12.6 nM |  | 9.81 nM
GGUCUGUGGAGCGAUACCAGCUUGAGUGUACUGGCCAGGUACAUGAGGAUCACCCAUGUAAGCCCUUGGCAGCGCUCCAGAGACC [#1 Exclusion - Theophylline B Attempt #17 (HarryS)] | 7.42 nM | 9.29 nM | 13.8 nM | 31.5 nM | 10.9 nM
AGUACUCGAACGGAUACCAGCCGGACAUGAGGAUCACCCAUGUCCUACCAUGUUUCGGUUGGCCCUUGGCAGCCGUUCGUGUACA [Omei Theo B SS A v1] | 207 nM |  | 428 nM |  | 736 nM
AGAUUCGACACGGCCGCCACUUUCAGUGGCUGGUCACAUGGUGCACAUGAGGAUCACCCAUGUGGAAGGACCGGGUGUUGAGUCU [XTryp B #25] | 23 nM |  | 45.2 nM | 38.3 nM | 
GGAUGCCACUAUGGAUAGCACGAUGCCGAUACCAGCUAGGAAACUAGCCCUUGGCAGCGGAACAUGAGGAUCACCCAUGUAUCCU [EThA NP+V+V2 #8] | 21.3 nM | 24.2 nM | 30.5 nM | 42.7 nM | 21.6 nM
UAUAUGGUGAUGGAUACCAGCAGAGAAAACGUUUAUCCUAACAUGAGGAUCACCCAUGUAUGCCCUUGGCAGCUGUUGUUAUAUA [8.M] | 26.7 nM |  | 42.3 nM |  | 35.2 nM
AUGUUGGUCUGAAGGAGCGCGAUAACAUGAGGAUCACCCAUGUUAAAUGGUACAUGAUACUCGCAGGUAGGUCGCAGUACGACAA [Same State Arginine B GF 13] | 18.6 nM | 20.7 nM | 29.7 nM | 32.2 nM | 25.1 nM
CCAUACGUAACUGAUACCAGUGUACUGACAUGAGGAUCACCCAUGUUGGGUUUUGUUGUACACCCUUGGCAGCAGAAUCGUAUGG [AstrosExyTheB#19] | 56.5 nM |  | 65.1 nM |  | 65.8 nM
ACCAACCACACCCUUCACUGUUUUCGCCGCCGAGGACCGGUACGGCCGCCACUCGUACAAAGACAUGAGGAUCACCCAUGUGCCU [theeternabot_exclusion_MS2_Trp_A_7] | 14.8 nM |  | 20.3 nM | 20.4 nM | 
CUCUGAGUGAUCGCUCACUCAGAGGCGGAUACCAGCGAGGUCCAUCGCCCUUGGCAGCCGAACAUGAGGAUCACCCAUGUCGGUA [#1 Same State - Theophylline A Attempt #20 (HarryS)] | 8.77 nM | 10.3 nM | 13.7 nM | 12.9 nM | 8.98 nM
GUAUGGAAACAUACUAGGGUAUCAUGAGAUACCAGUACAGAAAUGUACCCUUGGCAGCUCAAGCAUACAUGAGGAUCACCCAUGU [Ex Theophylline A 7] | 15 nM |  | 22.7 nM |  | 15.8 nM

Sequence | apparent KD of MS2 coat protein (input ligand: arginine 13.2 mM) | apparent KD of MS2 coat protein (input ligand: none) | apparent KD of MS2 coat protein [1] | apparent KD of MS2 coat protein [2] | apparent KD of MS2 coat protein [3]
UACUUGCUGACGGCCGCCACUAGAACAUGAGGAUCACCCAUGUAGGUCCUAGAUUCCUCAUGAACUAGGACCGGGUCAGCAAGAU [(Trp1)-(Ms2)-(T)'-(M)'-(Trp2)_Design15] | 53.7 nM |  | 201 nM | 221 nM | 
AAGCAGGGUGUAAAAUAAAUAAUCACUGAUACCAGACUAUGAGAUGUCCCUUGGCAGCAGAAACAUGAGGAUCACCCAUGUAAUA [JR_Nu_ExcTheophyA_Sub029] | 21.1 nM |  | 28.4 nM |  | 27.3 nM
ACAUGAGGAUCACCCAUGUGCAUCACCCGACGAGGACCGGUACGGCCGCCACUCGGGUAUAUAUUUGCAUCGGGUGAUUUUACGU [#25 Tryptophan A Same State] | 15.5 nM |  | 59.5 nM | 61.6 nM | 
UUGUGUUUAUUGGUUUAGCUAUUAUGGUUGCGAGGACCGGUACGGCCGCCACUCGAUGGAACAUGAGGAUCACCCAUGUGAGGAA [JR_ExcTryptoA_Sub013] | 14.7 nM | 28 nM | 31.8 nM | 33.9 nM | 22.1 nM
AACAUGAGGAUCACCCAUGUCCUCGUGAUUCGAGGACCGGUACGGCCGCCACUCGGUCCUCGCGAGGUGGAGUCAAAGACUCCAA [Omei Trp A SS A v3] | 72.3 nM | 384 nM | 487 nM | 425 nM | 327 nM
AGUCUUAAAGGAAGGAGCGCAGUCAUAACAUGAGGAUCACCCAUGUCGAGGUGAGGGUCAUUGCAGGUAGGUCGCCUUACUAAGA [Same State - Arginine B (Freestyle 6)] | 77.7 nM | 114 nM | 118 nM | 132 nM | 96.1 nM
UUGGGUUUGUGAAGGAGCGGGAAUGUUUUAUAGUGGAUCCUAACAUGAGGAUCACCCAUGUCCCAGGUAGGUCGCGCGGGUUUGG [12.S] | 40.1 nM | 64.8 nM | 100 nM | 79.9 nM | 55.5 nM
GUUUACAUGAGGAUCACCCAUGUCGCCGGCCGAGGACCGGUACGGCCGCCACUCGUCCUAAUGGCACUUGACUUCCCUAUUAAGU [theeternabot_sameState_MS2_Trp_A_33] | 20.4 nM |  | 31.3 nM | 25.5 nM | 
UACCGAUGAAGAAGGAGCGUAUGCUUAUAUGAUGGUAACAUGAGGAUCACCCAUGUCAGUAUACAGGUAGGUCGCUUCAUCGGUA [EAB NP+V+V2 #22] | 45.3 nM | 59.1 nM | 68.6 nM | 73.3 nM | 45.8 nM
AACGUAUACAGAAGGAGCGUGAAUUAUUUUAUUUUUUUAUAAACAUGAGGAUCACCCAUGUCACAGGUAGGUCGCUGUAUUCGUA [JR_ExcArginiB_Sub018] | 23.8 nM | 18.4 nM | 40.5 nM | 22.8 nM | 19.2 nM
UGACAUGAGGAUCACCCAUGUGUAAGAGAAGGAGCGGCCGGAAGGCCAGGUAGGUCGCUCAGGUAGCGUGAGGAUCACCCGUGUG [big_hook] | 81.8 nM | 161 nM | 130 nM | 97.5 nM | 35.7 nM
AACAUACAUGAGGAUCACCCAUGUCACGAUACCAGAUACAUGAGGAUCCCUUGGCAGCGUCAUGAGGAUCACCCAUGUUGUACAU [Exclusion Theophylline A 2] | 20.3 nM |  | 22.7 nM |  | 17.7 nM
AGCGAUAUGCAUGAUACCAGCUACAUGAGGAUCACCCAUGUGCGUCAGAAAUGACUGUGUAGCCCUUGGCAGCAUAAAGCAUGUA [Exclusion - Theophylline B (Freestyle 10)] | 32.3 nM |  | 50.7 nM |  | 38.5 nM
ACAUGAACAUGAGGAUCACCCAUGUAUGAUACCAGAAAAGAAGAGUUCCCUUGGCAGCGUACAACACAUGAGGAUCACCCAUGUG [kvcmullin] | 20.3 nM |  | 26.7 nM |  | 26.1 nM
AGACAUGAGGAUCACCCAUGUAGUAUGGAUACCAGAUCCAGAUUUAUCCCUUGGCAGCUGUGGUACAGCGUUGCAACGCUCCUAG [Exclusion - Theophylline A (Freestyle 14)] | 30.4 nM |  | 38.7 nM |  | 31.8 nM
ACGUAAUGCAGAAGGAGCGUCUUUUUAAAACAUGAGGAUCACCCAUGUAAUAUUUAUGGGAGACAGGUAGGUCGCUGAAGUACGA [JR_SSArginiB_Sub006] | 30.3 nM | 23.5 nM | 32.3 nM | 22.3 nM | 25.3 nM
ACAUGAGGAUCACCCAUGUAAGGUCUUGAUACCAGACGAGAAGUAGUCCCUUGGCAGCAAAUACGUGAGGGUCACACAUGUGUAA [edsmullin] | 21.6 nM |  | 37.7 nM |  | 25.9 nM
ACACAUGAGGAUCACCCAUGUCCAAUAGAUACCAGUGAUACAGUGCACCCUUGGCAGCUGUUACUGAGUAAUGGUUCCCUCGGAA [Same State Theophylline A GF2] | 26.8 nM |  | 48.6 nM |  | 37.5 nM
